For experiment [1], the target named is Flag-tagged PU.1 F203Y (human) (UniProt P17947).
For experiment [2], the target named is Flag-tagged PU.1 Q202L (human) (UniProt P17947).
Experiment [3] addresses Flag-tagged PU.1 Y252N (human) (UniProt P17947).
Experiment [4] concerns the target Flag-tagged PU.1 wild-type (human) (UniProt P17947).

In the case of “myc-tagged c-Jun (from UniProt P05412 1-331) (natural protein)”, the luciferase activity of the human M-CSFR promoter reporter, F9 cells, PU.1 mutant co-transfected with c-Jun, fold activation in experiment [1] amounted to 5 fold; in experiment [2] it was 5 fold; in experiment [3] it was 3.5 fold. This substance also came in with a luciferase activity of the human M-CSFR promoter reporter, F9 cells (no endogenous c-Jun), PU.1 co-transfected with c-Jun, fold activation in experiment [4] of 25 fold.

The values above are taken from publication PMC9474506.
